Where two headings read alike, the source gives them in different places.
T1: mouse LIGHT (mouse, UniProt Q9QYH9 72-239, limits assumed)
T1 construct: also called murine LIGHT
T1 sequence (looked up): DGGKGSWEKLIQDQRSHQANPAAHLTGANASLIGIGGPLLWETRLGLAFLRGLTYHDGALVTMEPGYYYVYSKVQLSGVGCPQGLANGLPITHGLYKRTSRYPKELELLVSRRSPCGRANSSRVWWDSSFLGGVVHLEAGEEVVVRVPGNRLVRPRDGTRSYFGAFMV

T2: recombinant human LIGHT-214K, FLAG-tagged extracellular domain (human)
T2 construct: the IgK leader peptide is marked only by underlining (not visible here), so its residues were not removed; Trimer
T2 chain: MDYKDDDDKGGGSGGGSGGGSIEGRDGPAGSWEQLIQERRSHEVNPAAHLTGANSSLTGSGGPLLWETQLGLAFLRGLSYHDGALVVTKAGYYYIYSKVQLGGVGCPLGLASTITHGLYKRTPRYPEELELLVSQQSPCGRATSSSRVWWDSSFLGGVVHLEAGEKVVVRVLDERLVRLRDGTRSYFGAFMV

T3: recombinant human LIGHT-214E, FLAG-tagged extracellular domain (human)
T3 construct: Trimer; Biotinylated in some assays
T3 chain: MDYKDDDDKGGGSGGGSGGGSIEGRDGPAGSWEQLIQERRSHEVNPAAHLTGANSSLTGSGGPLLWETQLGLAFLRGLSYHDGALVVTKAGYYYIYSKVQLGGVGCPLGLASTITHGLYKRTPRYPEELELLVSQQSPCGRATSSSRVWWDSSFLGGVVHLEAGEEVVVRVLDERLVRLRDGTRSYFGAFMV

T4: rabbit LIGHT protein, FLAG-tagged extracellular domain (rabbit)
T4 chain: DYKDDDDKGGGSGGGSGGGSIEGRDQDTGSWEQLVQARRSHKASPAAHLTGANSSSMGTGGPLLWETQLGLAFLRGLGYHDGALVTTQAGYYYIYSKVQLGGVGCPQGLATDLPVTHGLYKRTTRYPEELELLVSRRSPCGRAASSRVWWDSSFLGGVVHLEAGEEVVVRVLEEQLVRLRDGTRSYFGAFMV


What was measured:
[1] = target: T1, mouse LIGHT; test: SPR ProteOn, mAb captured on anti-human IgG
[2] = target: T2, recombinant human LIGHT-214K, …; test: SPR ProteOn, mAb captured on anti-human IgG, 25 C, apparent affinity
[3] = target: T3, recombinant human LIGHT-214E, …; test: HTRF competition, AlexaFluor 647 HVEM-Fc binding to Flag-hLIGHT-214E
[4] = target: T3, recombinant human LIGHT-214E, …; test: cell-based or functional assay
[5] = target: T3, recombinant human LIGHT-214E, …; test: HTRF competition, AlexaFluor 647 LTβR-Fc binding to Flag-hLIGHT-214E
[6] = target: T2, recombinant human LIGHT-214K, …; test: SPR cross-binding study, IgG4(PE) format; column hLIGHT 214K Binder
Experimental: All antibodies tested in the competition SPR were in human IgG4(PE) format (see Example 5 for re-formatting methods). To investigate antibodies that may share the same binding region on LIGHT, an SPR based assay was carried out on the ProteOn™ XPR36 Array System. […] The anti-human IgG surface was used as a capture surface to capture test antibodies as “ligands” for analysis. Using the ProteOn™ XPR36 Array System ability to address the capture surface in either the vertical or horizontal orientation the assay was carried out as follows. The “Ligand” antibodies were captured in the vertical orientation, and then a 1 in 1000 dilution of mouse serum was used to block the capture surface in the horizontal orientation. LIGHT was then passed over the capture surface in the horizontal orientation and bound to the captured ligand antibody, after which the same ligand antibody was passed over the “antibody-LIGHT” complex, (LIGHT is a trimer, so this ensures all available LIGHT molecules are bound to by the Ligand antibody), again the second application of the ligand antibody was in the vertical orientation. […] Binding/no-binding is determined by monitoring the sensorgrams, which were double referenced using a non-LIGHT binding antibody as a control sample and was included with every set of ligand antibodies run. […]

[7] = target: T3, recombinant human LIGHT-214E, …; test: HTRF competition, AlexaFluor 647 LTβR-Fc binding to Flag-hLIGHT-214E
Experimental: (§1) The following methods were carried out with a titration of inhibitor in order to establish the clone potency as measured by IC50 values in the assay. 5 μl of Flag-tagged hLIGHT (in-house) diluted to 2.5 nM final concentration (10 nM working concentration) in HTRF buffer with 5 μl of a titration of antibody purified from hybridoma supernatant diluted in HTRF assay buffer from 300 nM final (1200 nM working concentration) was pre-incubated for 1 hour at room temperature. To wells used to define total binding, 5 μl of LIGHT (10 nM working, 2.5 nM final) and 5 μl of hybridoma maintaining media (HMM,)) were added. To wells used to define non specific binding (receptor only) 10 μl of HMM was added. Total and non specific binding wells were pre-incubated for 1 hr at RT in the same plate as wells containing titration of inhibitor.
(§2) The final IgG4(PE) format lead panel was analysed for neutralization activity as in Example 3. Antibodies were tested for their ability to neutralize LIGHT binding to its receptors, HVEM and LTβR, in an HTRF assay. Antibodies were also tested for their ability to neutralize LIGHT-induced IL-8 release by HT29 colon carcinoma cells.
(§3) HTRF assays were performed as per Example 3, with the following modifications: HVEM-Fc and LTβR-Fc were labelled with AlexaFluor 647, and an anti-Flag K antibody (Cisbio) was used for detection.

[8] = target: T3, recombinant human LIGHT-214E, …; test: HTRF competition, AlexaFluor 647 HVEM-Fc binding to Flag-hLIGHT-214E
Experimental: as §1, §2, §3

[9] = target: T3, recombinant human LIGHT-214E, …; test: cell-based or functional assay
[10] = target: T4, rabbit LIGHT protein, FLAG-tagged …; test: SPR ProteOn, mAb captured on anti-human IgG, 25 C
Experimental: This created a capture surface suitable for capturing human antibodies. The LIGHT antibodies were captured on this anti-human IgG surface, and then human and rabbit LIGHT proteins were passed over captured LIGHT Abs at a concentration of 200 nM. A buffer injection was used to double reference the LIGHT binding sensorgrams. The assay was run at 25° C., using HBS-EP as running buffer.

[11] = target: T2, recombinant human LIGHT-214K, …; test: SPR ProteOn, mAb captured on anti-human IgG, 37 C
[12] = target: T3, recombinant human LIGHT-214E, …; test: SPR ProteOn, mAb captured on anti-human IgG, 37 C
[13] = target: T5, recombinant cynomolgus monkey LIGHT, FLAG-tagged extracellular domain (cynomolgus (Macaca fascicularis), UniProt E9NVF7 59-240); test: SPR ProteOn, mAb captured on anti-human IgG, 37 C
T5 construct: extracellular domain; also called cynomolgus LIGHT; cyno LIGHT

[14] = target: T2, recombinant human LIGHT-214K, …; test: SPR ProteOn, mAb captured on anti-mouse IgG, LIGHT 256 nM, 25 C, apparent affinity
Experimental: (§4) SPR analysis was carried out using the ProteOn™ XPR36 Array System (BioRad). Anti-mouse IgG (GE Healthcare BR-1008-38) was immobilised on a GLC biosensor surface using amine coupling, the surface was then blocked using 1M ethanolamine. […] Apparent affinities for the LIGHT-antibody interaction were determined using the 1:1 model inherent to the ProteOn XPR36 analysis software. The assay was run using HBS-EP (Teknova) as running buffer and carried out at 25° C.

[15] = target: T5, recombinant cynomolgus monkey LIGHT, …; test: as above
Experimental: as §4
Target sequence in this assay (E9NVF7 entry or part of it): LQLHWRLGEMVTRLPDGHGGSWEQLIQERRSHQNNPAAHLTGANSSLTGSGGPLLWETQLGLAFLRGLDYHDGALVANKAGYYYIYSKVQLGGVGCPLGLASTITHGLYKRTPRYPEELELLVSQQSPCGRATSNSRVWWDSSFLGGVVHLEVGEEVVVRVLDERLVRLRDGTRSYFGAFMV

[16] = target: T3, recombinant human LIGHT-214E, …; test: HTRF competition, LTβR-Fc binding to Flag-hLIGHT-214E
Experimental: as §1
LIGHT receptor was diluted in HTRF assay buffer and added to all wells, 5 μl/well of HVEM-Fc or LTβR-Fc (R&D systems) at 1.2 nM for HVEM (0.3 nM final) and 0.4 nM for LTβR (0.1 nM final).

[17] = target: T1, mouse LIGHT; test: SPR ProteOn, mAb captured on anti-mouse IgG
[18] = target: human LIGHT-214E, full length, expressed on the surface of CHO-S cells (human, UniProt O43557 1-240); test: FACS, CHO-S cells expressing hLIGHT-214E
[19] = target: T3, recombinant human LIGHT-214E, …; test: HTRF competition, HVEM-Fc binding to Flag-hLIGHT-214E
Experimental: as §1

[20] = target: T3, recombinant human LIGHT-214E, …; test: SPR ProteOn, mAb captured on anti-mouse IgG, LIGHT 256 nM, 25 C, apparent affinity
Experimental: as §4

Row | Binder | binding result [1] | IC50 [3] [nM] | HT29 IL-8 release, IC50 [4] [pM] | IC50 [5] [nM] | IC50 [7] [nM] | IC50 [8] [nM] | HT29 IL-8 release, IC50 [9] [nM] | binding result [10] | Kd [11] [nM] | Kd [14] [nM] | Kd [15] [nM] | IC50 [16] [nM] | binding result [17] | binding result [18] | IC50 [19] [nM] | also measured
1 | 117C06 in human IgG4(PE) format (antibody, V domains shown) VH: QVQLVQSGAEVKKPGASVKVSCKASGYTFVNFGISWVRQAPGQGLEWMGWISVYSGNTNYAQKLQGRVTLTTDTSTTTAYMELRSLRSDDTAVYYCARHNWNDYWGQGTLVTVSS VL: not shown |  |  |  |  |  |  |  |  |  |  |  |  |  |  |  | binding result [6]: no binding
2 | 13H04 in human IgG4(PE) format (antibody, V domains shown) VH: QVQLVQSGAEVKKPGASVKVSCKASGYTFTSYGISWVRQAPGQGLEWMGWISAHNANTNYAQKLQGRVTMTTDTSTSTAYMELRSLRSDDTAMYYCARLYRNWFDPWGQGTLVTVSS VL: QSALTQPASVSGSPGQSITISCTGTSSDVGGYNYVSWYQQHPGKAPKLMIYDVSKRPSGVSNRFSGSKSGNTASLTISGLQAEDEADYYCCSYAGSSTLLFGGGTKLTVL |  |  |  |  | 3.15 | 1.29 | 1.22 | binds | 0.401 |  |  |  |  |  |  | Kd [12]: 0.293 nM; Kd [13]: 0.207 nM
3 | 18E04 (purified from hybridoma supernatant, mouse IgG) (antibody, V domains shown, Murine C / human V chimeric IgG, lambda, purified from hybridoma supernatant) VH: QVLLVQSGAEVKKPGASVKVSCKASGYTFTHFDINWVRQATGQGLEWMGWMNPDSDNTDYAQEFQGRVTMTRDTSISTAYMELSSLRSEDTAVYYCARGGTTLDYWGQGTLVTVSS VL: SYELTQPPSVSVSPGQTARITCSGDALPKKYAYWYQQKSGQAPVLVIYEDSKRPSGIPERFSGSSSGTMATLTISGAQVEDEADYYCYSTDSSDNHVIFGGGTKLTVL |  |  | 327 |  |  |  |  |  |  | 2.33 | 3.11 | 1.64 | no binding | binds | 1.32 | 
4 | 98C07 (purified from hybridoma supernatant, mouse IgG) (antibody, V domains shown, Murine C / human V chimeric IgG, kappa, purified from hybridoma supernatant) VH: QVQLVESGGGLVKPGGSLRLSCAASGFTFSDYYMSWIRQAPGKGLEWVSYISRSSFIYYSESVKGRFTISRDNAKNSLYLQMNSLRAEDTAVYYCARWELSPFDYWGQGTLVTVSS VL: DIQMTQSPSSLSASVGDRVTITCRASQGISNYLAWFQQKPGKAPKSLIYAASSLQSGVPSKFSGSGSGTDFTLTISSLQPEDFATYFCQQYNTYPFTFGPGTKVDIK |  |  | 166 |  |  |  |  |  |  | 296 | 0.257 | 2.06 | no binding | binds | 1.08 | Kd [20]: 0.045 nM

Further lines, with some results ahead:

Row | binding result [1] | IC50 [3] [nM] | HT29 IL-8 release, IC50 [4] [pM] | IC50 [5] [nM] | IC50 [7] [nM] | IC50 [8] [nM] | HT29 IL-8 release, IC50 [9] [nM] | binding result [10] | Kd [11] [nM] | Kd [14] [nM] | Kd [15] [nM] | IC50 [16] [nM] | binding result [17] | binding result [18] | IC50 [19] [nM] | Binder | also measured
5 | no binding | 0.698 | 556 | 2.07 |  |  |  |  |  |  |  |  |  |  |  | 01C06 in human IgG4(PE) format (antibody, V domains shown) VH: QVQLVESGGGLVKPGGSLRLSCAASGFTFSDYYMNWIRQAPGKGLEWIADISSRDNTIYYADSVKGRFTISRDNAKNSLYLQMNSLRAEDTAVYYCARERGFGDYFGMDVWGQGTTVTVSS VL: AIQLTQSPSSLSASVGDRVTIACRASQDISSALAWFRQTPGKTPKLLIYDASSLESGVPSRFLGSGSGTDFTLTISSLQPEDFAIYYCQQFNTYPLTFGGGTKVEIK | binding result [2]: binds
6 | no binding | 1.64 | 261 | 3.48 | 3.48 | 1.64 | 0.26 | binds | 0.822 |  |  |  |  |  |  | 01C02 in human IgG4(PE) format (antibody, V domains shown) VH: QVQLVQSGAEVQKPGASVMVSCKASGYTFTYYGISWVRQAPGQGLEWMGWISANSGNTNYAQKFQGRVTMTTDTSTNTAYMELRSLRTDDTAVYYCAKGGVAVLEYWGQGTLVTVSS VL: DIQLTQSPSFLSASVGDRVTITCWASQGISSYLAWYQQKPGKAPNLLIYVASTLQSGVPSRFSGSGSGTEFTLTISSLQPEDFATYYCQQLKIYPLTFGGGTKVEIK | 

From patent publication US20170320956A1 (KYMAB, published 2017)
